PMC4551922, “Nucleic acid-binding specificity of human FUS protein”
Where two headings read alike, the source gives them in different places.

What was measured:
[1] = test system: MS2 coat protein (bacteriophage MS2?); conditions: EMSA: 50 mM Tris-HCl pH 7.4, 150 mM KCl, 2 mM MgCl2, 2 mM DTT, 0.1 mg/ml yeast tRNA, 0.1 mg/ml BSA, room temperature, 30 min, trace 32P-RNA
[2] = biological target: T1, MBP-FUS (human, UniProt P35637 1-526); assay: EMSA; conditions: EMSA: 50 mM Tris-HCl pH 7.4, 150 mM KCl, 2 mM MgCl2, 2 mM DTT, 0.1 mg/ml yeast tRNA, 0.1 mg/ml BSA, room temperature, 30 min, trace 32P-RNA
[3] = test system: MS2 coat protein (bacteriophage MS2?); conditions: EMSA: 50 mM Tris-HCl pH 7.4, 150 mM KCl, 2 mM MgCl2, 2 mM DTT, 0.1 mg/ml yeast tRNA, 0.1 mg/ml BSA, room temperature, 30 min, trace 32P-RNA; remark: listed apart in the source
[4] = biological target: T1, MBP-FUS; assay: EMSA; EMSA: 50 mM Tris-HCl pH 7.4, 150 mM KCl, 2 mM MgCl2, 2 mM DTT, 0.1 mg/ml yeast tRNA, 0.1 mg/ml BSA, room temperature, 30 min, trace 32P-RNA; conditions: protein: recombinant, tags: N-terminal His6-MBP (not cleaved)
[5] = biological target: T1, MBP-FUS; assay: EMSA; weaker than full prD; similar to 5'prD; EMSA: 50 mM Tris-HCl pH 7.4, 150 mM KCl, 2 mM MgCl2, 2 mM DTT, 0.1 mg/ml yeast tRNA, 0.1 mg/ml BSA, room temperature, 30 min, trace 32P-RNA; conditions: protein: recombinant; tags: N-terminal His6-MBP (not cleaved); label: 32P
[6] = biological target: MBP-LC-RRM (human, UniProt P35637 1-384); assay: EMSA; EMSA: 50 mM Tris-HCl pH 7.4, 150 mM KCl, 2 mM MgCl2, 2 mM DTT, 0.1 mg/ml yeast tRNA, 0.1 mg/ml BSA, room temperature, 30 min, trace 32P-RNA; conditions: protein: recombinant, tags: N-terminal MBP, label: 32P
[7] = biological target: MBP-RGG-Znf-RGG (human, UniProt P35637 385-526); assay: as above; conditions: protein: recombinant, tags: N-terminal MBP, label: 32P
[8] = biological target: T1, MBP-FUS; assay: EMSA; weaker than full prD; similar to 3'prD; EMSA: 50 mM Tris-HCl pH 7.4, 150 mM KCl, 2 mM MgCl2, 2 mM DTT, 0.1 mg/ml yeast tRNA, 0.1 mg/ml BSA, room temperature, 30 min, trace 32P-RNA; conditions: protein: recombinant; tags: N-terminal His6-MBP (not cleaved); label: 32P
[9] = biological target: T1, MBP-FUS; assay: competition; cold ssDNA vs labeled prD ssRNA; EMSA: 50 mM Tris-HCl pH 7.4, 150 mM KCl, 2 mM MgCl2, 2 mM DTT, 0.1 mg/ml yeast tRNA, 0.1 mg/ml BSA, room temperature, 30 min, trace 32P-RNA; conditions: protein: recombinant; tags: N-terminal His6-MBP (not cleaved); chain copies: 4; label: 32P
[10] = chain copies: 4, label: 32P, blunt

Sequence of MBP-LC-RRM (P35637 1-384): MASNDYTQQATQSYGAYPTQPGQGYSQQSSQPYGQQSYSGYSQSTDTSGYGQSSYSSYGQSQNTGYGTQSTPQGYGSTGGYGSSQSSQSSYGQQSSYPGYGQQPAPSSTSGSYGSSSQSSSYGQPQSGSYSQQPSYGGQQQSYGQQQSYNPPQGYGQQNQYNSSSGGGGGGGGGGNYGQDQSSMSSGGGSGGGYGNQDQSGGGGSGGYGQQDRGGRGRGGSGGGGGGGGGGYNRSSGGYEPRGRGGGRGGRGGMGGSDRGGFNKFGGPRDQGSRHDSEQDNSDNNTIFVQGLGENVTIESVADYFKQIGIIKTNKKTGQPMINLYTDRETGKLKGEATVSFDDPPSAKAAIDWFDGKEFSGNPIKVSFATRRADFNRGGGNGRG
Sequence of MBP-RGG-Znf-RGG (P35637 385-526): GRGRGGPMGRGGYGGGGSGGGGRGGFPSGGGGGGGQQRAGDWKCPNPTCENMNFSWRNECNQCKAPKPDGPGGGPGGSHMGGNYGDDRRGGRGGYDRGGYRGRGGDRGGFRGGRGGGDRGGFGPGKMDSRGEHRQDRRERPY
T1 sequence (P35637 whole entry): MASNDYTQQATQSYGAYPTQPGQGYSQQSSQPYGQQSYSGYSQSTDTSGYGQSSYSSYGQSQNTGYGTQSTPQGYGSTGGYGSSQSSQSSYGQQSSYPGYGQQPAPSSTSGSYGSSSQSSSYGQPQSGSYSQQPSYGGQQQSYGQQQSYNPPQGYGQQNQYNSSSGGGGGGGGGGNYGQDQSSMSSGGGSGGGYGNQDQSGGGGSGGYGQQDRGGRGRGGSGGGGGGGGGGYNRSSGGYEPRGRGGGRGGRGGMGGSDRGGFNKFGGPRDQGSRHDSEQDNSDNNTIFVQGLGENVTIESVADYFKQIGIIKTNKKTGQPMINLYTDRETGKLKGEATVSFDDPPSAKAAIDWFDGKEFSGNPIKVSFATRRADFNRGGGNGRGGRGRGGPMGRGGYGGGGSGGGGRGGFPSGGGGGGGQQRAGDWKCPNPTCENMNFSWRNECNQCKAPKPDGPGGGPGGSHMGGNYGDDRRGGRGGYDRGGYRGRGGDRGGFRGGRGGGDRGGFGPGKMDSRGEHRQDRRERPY

Molecule: MS2 motif 21 nt
- Kd [1]: 10 nM

Molecule: TERRA
- Kd [2]: 116 nM

Molecule: MBP 1-200
- Kd [2]: 56 nM

Molecule: MBP 1-100 MS2
- Kd [3]: 100 nM

Molecule: GAUUUAUCUUUAACUACUCAAGAUACUGAACAUGACA (structured_RNA) [Stem-loop]
- Kd ([4]; label: 32P, hairpin): 430 ± 28 nM

Molecule: GAUUUAUCUUUAACUACUCUAUCUUCUGAACAUGACA (ssRNA) [Stem-loop neg]
- Kd ([4]; label: 32P): 460 ± 39 nM

Molecule: GGGAGACCAAAACUG (ssRNA) [MBP 1-10]
- binding result ([4]; label: 32P): no binding

Molecule: AAAAAAAAAAAAAAAAAAAAAAAA (ssRNA) [polyA 24-mer]
- Kd ([4]; label: 32P): 846 nM

Molecule: AGGGTTAGTGTTAGTGTTAGGG (ssDNA) [Htelo DNA neg]
- Kd ([4]; label: 32P): 690 ± 48 nM

Molecule: AGUGAAGGCAGAGAGGGGUUAAGG (ssRNA) [3'prD]
- binding result [5]: binds

Molecule: AGGGTTAGGGTTAGGGTTAGGG (structured_DNA) [Htelo DNA]
- Kd ([4]; label: 32P): 730 ± 38 nM

Molecule: UUGUAUUUUGAGCUAGUUUGGUGAC (ssRNA) [GGUG]
- Kd [4]: 600 ± 20 nM

Molecule: AUUGAGGAGCAGCAGAGAAGUUGGAGUGAAGGCAGAGAGGGGUUAAGG (ssRNA) [prD RNA]
- Kd [6]: 60 ± 3 nM
- Kd ([4]; label: 32P): 97 ± 2 nM
- Kd [7]: 81 ± 2 nM

Molecule: GGGAGACCAAAACUGAAGAAGGUAA (ssRNA) [MBP 1-20]
- binding result ([4]; label: 32P): binds

Molecule: AUUGAGGAGCAGCAGAGAAGUUGG (ssRNA) [5'prD]
- binding result [8]: binds

Molecule: CCUUAACCCCUCUCUGCCUUCACUCCAACUUCUCUGCUGCUCCUCAAU (ssRNA) [As-prD RNA]
- Kd [6]: 280 ± 22 nM
- Kd ([4]; label: 32P): 79 ± 4 nM
- Kd [7]: 260 ± 32 nM

B1: prD DNA/RNA hybrid (DNA:RNA)
DNA: ATTGAGGAGCAGCAGAGAAGTTGGAGTGAAGGCAGAGAGGGGTTAAGG
RNA: CCUUAACCCCUCUCUGCCUUCACUCCAACUUCUCUGCUGCUCCUCAAU
- Kd ([6]; blunt): 1200 ± 250 nM
- Kd [4, 10]: 980 ± 100 nM
- Kd ([7]; blunt): 1100 ± 110 nM

B2: prD dsRNA (dsRNA)
RNA 1: AUUGAGGAGCAGCAGAGAAGUUGGAGUGAAGGCAGAGAGGGGUUAAGG
RNA 2: B1 RNA
- Kd ([6]; blunt): 2100 ± 60 nM
- Kd [4, 10]: 350 ± 38 nM
- Kd ([7]; blunt): 1100 ± 80 nM

Molecule: ATTGAGGAGCAGCAGAGAAGTTGGAGTGAAGGCAGAGAGGGGTTAAGG (ssDNA) [prD ssDNA]
- Kd [6]: 220 ± 32 nM
- Kd ([4]; chain copies: 4, label: 32P): 280 ± 26 nM
- Kd [7]: 290 ± 29 nM
- binding signal [9]: 10 fold more than ssRNA

B3: prD dsDNA (dsDNA)
DNA 1: B1 DNA
DNA 2: CCTTAACCCCTCTCTGCCTTCACTCCAACTTCTCTGCTGCTCCTCAAT
- Kd ([6]; blunt): 1400 ± 170 nM
- Kd [4, 10]: 1200 ± 110 nM
- Kd ([7]; blunt): 1000 ± 81 nM

Molecule: CAACUUAGGUGGUUGAUUUGA (ssRNA) [GUGGU]
- Kd ([4]; label: 32P): 980 ± 42 nM

Molecule: UUGUAUUUUGAGCUAGUUUCCUCAC (ssRNA) [GGUG neg]
- Kd ([4]; label: 32P): 840 ± 50 nM

Molecule: AGGUCUCAGUUCAUCGCGCGAGGUUAUAGU (ssRNA) [CGCGC]
- Kd ([4]; label: 32P): 290 ± 13 nM
